Values of other authors in article PMC10673186.

Biological target: SIRPα (Homo sapiens) (UniProt P78324)
Chain of UniProt P78324 (P78324 31-373): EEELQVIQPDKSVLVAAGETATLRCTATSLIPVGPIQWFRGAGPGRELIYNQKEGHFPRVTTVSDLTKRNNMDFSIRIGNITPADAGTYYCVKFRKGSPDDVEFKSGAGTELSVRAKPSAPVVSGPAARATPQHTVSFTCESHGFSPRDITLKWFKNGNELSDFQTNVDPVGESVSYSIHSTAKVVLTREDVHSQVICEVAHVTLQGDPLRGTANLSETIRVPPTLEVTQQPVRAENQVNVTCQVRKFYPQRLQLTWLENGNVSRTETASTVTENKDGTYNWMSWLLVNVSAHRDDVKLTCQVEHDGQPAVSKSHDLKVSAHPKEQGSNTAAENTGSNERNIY

CD47 (from UniProt Q08722)
Kd: 1000 nM
